Assay results published in paper PMC11014909 (2024).

B1: GST-Pif1N(56–77) [S. cerevisiae] / Rfa1N(1–132)-4myc [S. cerevisiae] (parent complex)
chain 1: KHPSILSKEDLDLLSDSDDWEE
chain 2: MSSVQLSRGDFHSIFTNKQRYDNPTGGVYQVYNTRKSDGANSNRKNLIMISDGIYHMKALLRNQAASKFQSMELQRGDIIRVIIAEPAIVRERKKYVLLVDDFELVQSRADMVNQTSTFLDNYFSEHPNETL

Variants of: B1
Experiment: GST pull-down followed by myc-specific western blotting, quantified; n = 3 biological replicates; parent: 0.53; read off a plot

response | Variant
~0.077 % of input | chain 1 L11A, chain 1 D12A, chain 1 L13A, chain 1 L14A
